{"source": "the DeepSol protein solubility set"}
{"assay": "soluble on expression in E. coli; label from the status in PepcDB or PDB records"}
{"sequence": "MSAVFGAKYTLRFGHVLAPGEPYHQAFLKWAKAVEEKTNGDVRIEVFPSSQLGVEEDIIEQIRMGAPVGWNTDSARLGMYVKDIGVMNLAYFIDFMGAKTPEEAIEVLKKIKQSPTMQKWLKELEQRFGIKVLSFYWVQGYRHFVTNKPIRKPEDLNGLRIRTPGAPAWQESIRSLGAIPVAVNFGEIYTAVQTRAVDGAELTYANVYNGGLYEVLKYMSETGHFLLINFEIVSADWFNSLPKEYQKIIEEEMDKAGIEVSLKIMKELEEEYKQKCIEKGMAVIPASEIDKEAFMEKAKQAYKNLGLENALNQLIKEVKGEHHHHHH", "soluble on expression in E. coli": "soluble"}
{"sequence": "MSAVNGLVPSTIFDRINSDMDVSEEMEEIREVLYEMIKTNFPMGVAATHLSEKYHEEFVSKGLGRELPEDWIQQVTAAEEFEAQTRGPITILFVRLSNTSSFKRPPINSVNVRVISTDREPTADELKKIKQRKENEPTEHAKTLSQQSVALKEGSTVSIVYADSPKRFFIRALADDDQYEKIGTTLAEIYAQETPPSALDSRVAIYEIVAGGAYALQDSNGTWFRVIAKQPPQSGQVMCHFVDVGVCEKFPVAAIRLLPPAVHPVMSIGSMAREVRMDVSEEESLRLNNKFVDLTFETKDDGIQVPINLTLSKFDSSDSESLPVVDLQSSDGLSITEFLKKPSGVVRLSTPTKTTSPITPASASTSSLTCLFDKPATIQPMTVAQMPMSAFPANAIFAAGPTDISLRQLSLDPMPDYMYAKLKDECALPDSQLESSPDFGGFYAAFIDDRWERVQCIRASKIDKQAYCVYLLDVGAFQYVRKEAMRRLNSTSPFKKMLMFKCKIGGIKPVAGGEVWSRESHEAVREFFEAACGEPVVVEPTQPGWSQWKQLNAPAVPTCEARLSCCGRDIGDWLIACGLALPINAPIPSPNSQSLLTFVPTPINIVGRNI", "soluble on expression in E. coli": "not soluble"}
{"sequence": "MSAWTMSDPYPATEAHAQRAAKSSPKSLLDRLLSLVRREPEDREGIKAILEAAHERELLDAESYAMIKGALAVSERTVADIMVPRSRMDLLDISQPLPQLLATIIETAHSRFPVYEDDRDNIIGILLAKDLLRYMLEPALDIRSLVRPAVFIPEVKRLNVLLREFRASRNHLAIVIDEHGGISGLVTMEDVLEQIVGDIEDEFDEDEEESIFPEGENQWRLTASTDISHFNATFATDLPDDEYDSVGGWLGGQLGRIPRRGDSADHDGLHIEVVRADARRALWLRVRRNAGAQPPASAAE", "soluble on expression in E. coli": "not soluble"}
{"sequence": "MSAYRHAVERIDSSDLACGVVLHSAPGYPAFPVRLATEIFQRALARLPGDGPVTLWDPCCGSGYLLTVLGLLHRRSLRQVIASDVDPAPLELAAKNLALLSPAGLTARELERREQSERFGKPSYLEAAQAARRLRERLTAEGGALPCAIRTADVFDPRALSAVLAGSAPDVVLTDLPYGERTHWEGQVPAQPVAGLLRSLASALPAHAVIAVTDRSRKIPVAPVKALERLKIGTRSAVLVRAADVLEAGP", "soluble on expression in E. coli": "soluble"}
{"sequence": "MSDEISILIQDRKTGQRRNLTLNINITGNIEDLTKDVEKLTEIPSDELEVVFCGKKLSKSTIMRDLSLTPATQIMLLRPKFNSHNENGATTAKITTDSSILGSFYVWCKNCDDVKRGKLRVYCQKCSSTSVLVKSEPQNWSDVLKSKRIPAVCEECCTPGLFAEFKFKCLACNDPAAALTHVRGNWQMTECCVCDGKEKVIFDLGCNHITCQFCFRDYLLSQLERFGFVNQPPHGFTIFCPYPGCNRVVQDVHHFHIMGQTSYSEYQRKATERLIAVDDKGVTCPNVSCGQSFFWEPYDDDGRSQCPDCFFSFCRKCFERNCVCQSEDDLTRTTIDATTRRCPKCHVATERNGGCAHIHCTSCGMDWCFKCKTEWKEECQWDHWFN", "soluble on expression in E. coli": "not soluble"}
{"sequence": "MSDIAPAAHSPYIPPTPEVGLPLWLLAELTYRCPLQCPYCSNPLDFARQGQELTTEQWFKVMQEAREMGAAQIGFSGGEPLVRQDLAELIAEARRLGFYTNLITSGIGLTEEKIIAFKKAGLDHIQISFQASDEQVNNMLAGSKKAFAQKLEMAKAVKKHGYPMVLNFVTHRHNIDRIDKIIELCLALEADFVELATCQFYGWAHLNRVGLLPTKDQLVRAEAVTNEYRDQLAAQDHPCKLIFVTPDYYEERPKACMNGWGNIFLTVTPDGTALPCHGARQMPIQFPNVREHSMQHIWYDSFGFNRFRGYDWMPEPCRSCDEKEKDFGGCRCQAFMLTGDAANADPVCSKSYHHGIITQARDESETATQTIEELAFRNDRNSRLIAKSS", "soluble on expression in E. coli": "not soluble"}
{"sequence": "MSDISIEMIKRIVEEVVKKFLSKKILVVFTGGKVNFDISLDELKKIKENSMVEYTLVFSRAASQIFNKKMISDQLESVEVIEEGEAINARECVQKHNMVIFATLTRNTASKISHLILDTLPTQIAINCVLSDVPIVAVRDAADLNVETWRELGFSNFPPALKNSYDKIFKDIESYGIELCNSFELAKKVLGYLNSNSFSIAEKINKEEKSKRENSYYNGAKNIRLEKKIITREDIIGLKGKIDTIEIAKDSIITPLAMDFIRDNQLKVIKT", "soluble on expression in E. coli": "not soluble"}
{"sequence": "MSDPKPTRSQGDLAEMLEMLLDKGVVINADIAVSVGDTELLGIQLRAAVASFETAAQYGLEFPTGTDMKRVETAAGVSSDASDANSETQPETEPARETTDEHSAVSSPSSREE", "soluble on expression in E. coli": "not soluble"}
{"sequence": "MSDVRPPLPPFTAETAAQKVRAAEDGWNSRDPQRVSLAYSPDSVWRNRSTFVRGRERIVEFLSGKWQREQEYRLIKELWAFTGNRIAVRFAYEWHDDSGNWFRSYGNENWAFDEQGLMYERHASINDLPIREDQRLFRWLLGRRPDNHPSLGELGLLEHHHHHH", "soluble on expression in E. coli": "soluble"}
{"sequence": "MSDYLSVSTLTKYLKLKFDKDPYLERVYLTGQVSNFRRRPNHQYFSLKDDKSVIQATMWSGHFKKLGFELEEGMKVNVVGRVQLYEPSGSYSIIVEKAEPDGIGALAIQFEQLKKKLSQAGYFDDRHKQLIPQFVRKIGVVTSPSGAVIRDIITTVSRRFPGVEILLFPTKVQGEGAAQEIAQTIALANEKKDLDLLIVGRGGGSIEDLWAFNEECVVEAIFESRLPVISSVGHETDTTLADFVADRRAATPTAAAELATPVTKIDILSWITERENRMYQSSLRLIRTKEERLQKSKQSVIFRQPERLYDGFLQKLDNLNQQLTYSMRDKLQTVRQKQGLLHQKLQGIDLKQRIHIYQERVVQSRRLLSSTMTSQYDSKLARFEKAQDALISLDSSRIVARGYAIIEKNHTLVSTTNGINEGDHLQVKMQDGLLEVEVKDVRQENI", "soluble on expression in E. coli": "not soluble"}
{"sequence": "MSEAGSTVPFDFSSYGGEIDDLATRGLADAAGAEGIRTAMARVTGRAEEVQASRLSANEQNLIACGPGCADCCRVNVTVLLPEAIAIAAYLEEIGKGDETNAITMRVADTAARVRWMEDDERIRAGVACPFLDGRGWCAIYPVRPLTCRALSSTDPEQCRRALAAHCSDEEETIVVNIFQKFLMEGTFQSLARAMERAGLDTTGRELCRSVTRCLLDPRLADDFLAGKRIKFPESLEHHHHHH", "soluble on expression in E. coli": "soluble"}
{"sequence": "MSEEDAEKLFLQEKPTRALLFIGSTGKTYASVISKEIDSTFAHTTRILSKMEQSGLIRFTFEGRIKFVELTKYGEEVEAALKDFRNIISEESPLRKEYLTAEEAGKVDKVRESEGKEYREHEEWEEENESEKDLDPLSAEILEKVRNLRNKIEGIYREAAETGQSKEMLSRKLGPNSRDIKKLYNQIENAETPVDETVVLALEETEGLLESYLKGSKPENV", "soluble on expression in E. coli": "not soluble"}
{"sequence": "MSEEIKKIEEVAEQDKAPKVPTTEPPVDVPAPVTEEAPKVEEAVAEIAAPAAAEGETATAAAAAPEEKKKSGGVARRFTFNKRWGKHRDAEASTPKEPEAPKDPKEDVLGWIAQQIPQAVHKANYQVIDWVQKTAIPEEGERKTIPGKDQATTRNQFIGFFKDGDVLAKLANALEPGAVEVAAAEENADAAAQKEVQKKNIDAFGAWAQKTLGTEAAPVTNEDLLEKGKAGYTAVFQTLWQLGVQAKEKFDKEGFNVDTIVQLANSVVKSGLLTTILGFFRRNRQAAAAVEEPKDETAAAEGAGEAKEEGATGEVADTADEPVAVKQETSAPAAVAAN", "soluble on expression in E. coli": "not soluble"}
{"sequence": "MSEFDFDVVVVGAGAVGLACGYALSRRGLVVAVLEEQGRIGEGVSSRNSEVIHGGLYYPTGSLKAKLCVQGRRALYAFCDAHKVPYKKCGKLVVATSEDEIARLDTIWEQALANDVEGMERLTGAQARALEPGLNAHAALLSPESGVFASHDYMLALQGEIEAAGGAVVLSTPFEGAEPLAGGGFRVRAGGAEPTDLTCRLLVTAPGLSSQAVAGRIEGYPAEQIPKAHFGKGIYFRLSGKAPFQRLIYPPPIHGALGTHYRNDMGGQAVFGPDLEYVAAPDYSVDPAKADAFAAYIRKFWPDLPADRLVPDYAGVRPKLHGPGEPQPDFQLRGVEDHGLAGLMALFGIESPGLTSSLAIGETVAERLCGASLEHHHHHH", "soluble on expression in E. coli": "soluble"}
{"sequence": "MSEKPLTKTDYLMRLRRCQTIDTLERVIEKNKYELSDNELAELTMNKLYDKIPSSVWKFIRLAVFYSAADHR", "soluble on expression in E. coli": "not soluble"}
{"sequence": "MSELLAGTKLINQDSEELDAGEHLKGKVVGLYFSASWCPPCRQFTPKLTRFFDEIRKKHPEFEVVFVSRDREDGDLREYFLEHMGAWTAIPFGTPRIQELLEQYEVKTIPSMRIVKPNGDVVVQDARTEIQDKGNDPEALWEEWLAFYD", "soluble on expression in E. coli": "not soluble"}
{"sequence": "MSEMTPREIVSELDQHIIGQADAKRAVAIALRNRWRRMQLQEPLRHEVTPKNILMIGPTGVGKTEIARRLAKLANAPFIKVEATKFTEVGYVGKEVDSIIRDLTDSAGGAIDAVEQNGIVFIDEIDKICKKGEYSGADVSREGVQRDLLPLVEGSTVSTKHGMVKTDHILFIASGAFQVARPSDLIPELQGRLPIRVELTALSAADFERILTEPHASLTEQYKALMATEGVNIAFTTDAVKKIAEAAFRVNEKTENIGARRLHTVMERLMDKISFSASDMNGQTVNIDAAYVADALGEVVENEDLSRFIL", "soluble on expression in E. coli": "soluble"}
{"sequence": "MSEMTPREIVSELDQHIIGQADAKRAVAIALRNRWRRMQLQEPLRHEVTPKNILMIGPTGVGKTEIARRLAKLANAPFIKVEATKFTEVGYVGKEVDSIIRDLTDSAMKLVRQQEIAKNRARAEDVAEERILDALLPPAKNQWGEVENHDSHSSTRQAFRKKLREGQLDDKEIEIDVSAGVSMGVEIMAPPGMEEMTNQLQSLFQNLGSDKTKKRKMKIKDALKALIDDEAAKLINPEELKQKAIDAVEQNGIVFIDEIDKICKKGEYSGADVSREGVQRDLLPLVEGSTVSTKHGMVKTDHILFIASGAFQVARPSDLIPELQGRLPIRVELTALSAADFERILTEPHASLTEQYKALMATEGVNIAFTTDAVKKIAEAAFRVNEKTENIGARRLHTVMERLMDKISFSASDMNGQTVNIDAAYVADALGEVVENEDLSRFIL", "soluble on expression in E. coli": "soluble"}
{"sequence": "MSERPDLVDPLPEDEPLPGENIPDTPEGDDPLDPDTQNEVEDPRR", "soluble on expression in E. coli": "not soluble"}
{"sequence": "MSERRIDVNRSNYSVIDNEFGNMRDRFEQEMRRVEEEMKRLRSEFEGYRPNGGPPAAISNQPYNAYSNTSSHHETSNRTGGFGSPLPPPSFHGPSDLMAHRPTYDPYLDNLKSPLIKDESDGKTLRLRFDVANYKPEEVTVKTIDNRLLVHAKHEEKTPQRTVFREYNQEFLLPRGTNPEQISSTLSTDGVLTVEAPLPQLAIQQ", "soluble on expression in E. coli": "not soluble"}
{"sequence": "MSESAFKDCFSTDVSADTRLFHFLARDYIVQEGQQPSWLFYLTRGRARLYATLANGRVSLIDFFAAPCFIGEIELIDKDHEPRAVQAIEECWCLALPMKHYRPLLLNDTLFLRKLCVTLSHKNYRNIVSLTQNQSFPLVNRLAAFILLSQEGDLYHEKHTQAAEYLGVSYRHLLYVLAQFIHDGLLIKRKDI", "soluble on expression in E. coli": "not soluble"}
{"sequence": "MSESITITANSIDNPETDVRRNERFHLVPRKRLEALVTTSGLIGAMIGFYDGVKISSLRYLTENAHRMPKTVGGWYFYHKKKNYVMIVAGVKKAITTSFKYGAAVGGFFGLEYLLDISRGNTIDFFNTTTAAFLTSTFYAKYNKLSSMQTRKMIFKGTALGLTLGLIQDYLIHARKGRVWYLDRYTQQKLV", "soluble on expression in E. coli": "not soluble"}
